target: T1, C. neoformans Sgl1 (Cryptococcus neoformans var. grubii, UniProt J9W473); assay: H/D exchange mass spectrometry mapping of disordered regions; settings: H/D exchange MS of C. neoformans Sgl1; per peptide (amino acids Start-End, Sequence); Fig S2a
Method: HDX-MS reactions were performed in a similar manner as is outlined in previous publications. HDX reactions were conducted in a final reaction volume of 50 µL with a final Sgl1 concentration of 0.6 µM (30 pmol). Exchange was carried out in triplicate for a single time point (3 s at 4 °C). Hydrogen deuterium exchange was initiated by the addition of 48 µL of D2O buffer (100 mM NaCl (20 mM pH 6.0 Bis-Tris), 90.5% D2O (V/V) to 1 µL of protein and 1 µL of H2O. Exchange was terminated by the addition of ice-cold acidic quench buffer, resulting in a final concentration of 0.6 M guanidine-HCl and 0.9% FA post quench. Samples were immediately frozen in liquid nitrogen and stored at −80 °C. Fully deuterated samples were generated by first denaturing the protein in 2 M guanidine for 5 min at 20 °C. Following denaturing, 48 µL of D2O buffer was added to the denatured protein and allowed to incubate for 5 min at 20 °C before quenching. Samples were flash frozen and stored at −80 °C until injection onto the ultra-performance liquid chromatography (UPLC) system for proteolytic cleavage, peptide separation, and injection onto a QTOF for mass analysis.
Protein sample was rapidly thawed and injected onto a UPLC system kept in a cold box at 2 °C. The protein was run over two immobilized pepsin columns (Applied Biosystems; Porosyme 2-3131-00) and the peptides were collected onto a VanGuard Precolumn trap (Waters). The trap was eluted in line with an ACQUITY 1.7 μm particle, 100 × 1 mm^2 C18 UPLC column (Waters), using a gradient of 5–36% B (Buffer A 0.1% formic acid, Buffer B 100% acetonitrile) over 16 min. MS experiments were performed on an Impact QTOF (Bruker) and peptide identification was done by running tandem MS (MS/MS) experiments run in data-dependent acquisition mode. The resulting MS/MS dataset was analyzed using PEAKS7 (PEAKS) and a false discovery rate was set at 1% using a database of purified proteins and known contaminants. HDExaminer Software (Sierra Analytics) was used to automatically calculate the level of deuterium incorporation into each peptide. All peptides were manually inspected for correct charge state and presence of overlapping peptides. Deuteration levels were calculated using the centroid of the experimental isotope clusters, with correction for back exchange generated using the fully deuterated sample. The mass spectrometry proteomics data have been deposited to the ProteomeXchange Consortium via the PRIDE partner repository[31] with the dataset identifier PXD024981.

T1 sequence (J9W473 entry or part of it): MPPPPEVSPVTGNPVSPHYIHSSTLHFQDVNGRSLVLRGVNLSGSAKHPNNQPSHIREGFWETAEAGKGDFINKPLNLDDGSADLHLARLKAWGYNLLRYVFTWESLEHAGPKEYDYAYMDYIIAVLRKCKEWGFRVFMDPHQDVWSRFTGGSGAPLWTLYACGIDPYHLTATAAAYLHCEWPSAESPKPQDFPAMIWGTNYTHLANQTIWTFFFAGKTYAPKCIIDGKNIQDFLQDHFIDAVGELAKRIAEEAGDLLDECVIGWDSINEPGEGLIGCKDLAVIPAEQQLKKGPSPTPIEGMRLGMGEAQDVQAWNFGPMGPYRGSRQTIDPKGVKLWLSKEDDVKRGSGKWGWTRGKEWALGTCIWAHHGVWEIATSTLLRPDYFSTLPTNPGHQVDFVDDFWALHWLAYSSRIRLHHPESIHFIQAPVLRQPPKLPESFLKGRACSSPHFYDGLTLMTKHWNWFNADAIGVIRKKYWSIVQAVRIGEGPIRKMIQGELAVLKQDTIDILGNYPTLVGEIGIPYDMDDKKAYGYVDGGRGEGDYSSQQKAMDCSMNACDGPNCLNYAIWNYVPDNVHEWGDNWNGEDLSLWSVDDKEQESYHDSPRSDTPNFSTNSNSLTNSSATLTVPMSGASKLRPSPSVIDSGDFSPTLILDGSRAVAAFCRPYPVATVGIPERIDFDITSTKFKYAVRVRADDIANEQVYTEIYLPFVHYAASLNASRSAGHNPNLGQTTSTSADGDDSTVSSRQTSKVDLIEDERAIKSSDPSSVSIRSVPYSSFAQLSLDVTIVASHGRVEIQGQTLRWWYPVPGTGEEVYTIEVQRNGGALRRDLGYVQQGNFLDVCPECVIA

Compound	% Deuterium incorporation, Average [%]
RAIKSSDPSSVSIRSVPYSSF	104.9
RFTGGSGAPLWTL	6.3
RGVNLSGSAKHPNNQPSH	44.0
RGVNLSGSAKHPNNQPSHIREGF	44.7
RIRLHHPESIHF	6.5
RRDLGYV	59.6
RRDLGYVQQGN	98.6
RRDLGYVQQGNF	98.0
RSVPYSSF	93.7
RVFMDPHQDV	5.4
RVFMDPHQDVW	3.4
RVFMDPHQDVWSRF	4.4
RWWYPVPGTG	40.0
RWWYPVPGTGE	36.9
RWWYPVPGTGEEV	29.8
SADGDDSTVSSRQTSKVDL	103.2
SINEPGEGL	13.9
SIRSVPYSSF	96.6
SLEHAGPKEYD	7.5
SLEHAGPKEYDYA	6.0
SRFTGGSGAPLWTL	5.6
SRSAGHNPNLGQTTSTSADGDD	102.7
SRSAGHNPNLGQTTSTSADGDDSTVSSRQTSKVDL	101.7
SSRIRLHHPESIHF	4.1
STLPTNPGHQVD	53.3

Compound	% Deuterium incorporation, Average [%]
STLPTNPGHQVDF	73.1
STNSNSLTNSSA	102.0
STNSNSLTNSSAT	101.5
STNSNSLTNSSATL	102.1
STNSNSLTNSSATLTVPMSG	99.8
STNSNSLTNSSATLTVPMSGASKLRPSPSV	91.4
STNSNSLTNSSATLTVPMSGASKLRPSPSVIDSGDFSPTL	72.8
STVSSRQTSKVDL	98.6
SYHDSPRSDTPNF	96.9
TGGSGAPLWTL	5.6
TIDPKGVKL	7.9
TIEVQRNGGAL	26.9
TLMTKHWNWFNA	34.8
TVGIPERIDF	7.3
TVPMSGASKLRPSPSV	90.4
TVPMSGASKLRPSPSVIDSGDFSPTL	57.8
TWESLEHAGPKEYD	5.0
VGEIGIPYDMD	24.9
VGEIGIPYDMDDKKAYGYVDGGRGEGDY	21.5
VGEIGIPYDMDDKKAYGYVDGGRGEGDYSSQQKAMD	19.4
VGELAKRIAEEAGDL	5.8
VGIPERIDF	8.3
VIGWDSINEPGEGL	4.0
VIGWDSINEPGEGLIG	3.9
VIGWDSINEPGEGLIGCKDL	5.1

Compound	% Deuterium incorporation, Average [%]
VIRKKYWSIVQ	49.5
VIRKKYWSIVQA	46.8
VLKQDTIDILGNYPTL	10.8
VNLSGSAKHPNNQPSHIREGF	45.8
VQAWNFGPMGPYRGSRQTIDPKGVKL	24.9
VQRNGGAL	39.7
VQRNGGALRRDLG	72.0
VRIGEGPIRKMIQGEL	21.0
VSIRSVPYSSF	97.9
VTIVASHGRVEIQGQTL	23.2
VTIVASHGRVEIQGQTLRWWYPVPGTGE	23.1
VTIVASHGRVEIQGQTLRWWYPVPGTGEE	22.0
VTIVASHGRVEIQGQTLRWWYPVPGTGEEV	18.9
VTIVASHGRVEIQGQTLRWWYPVPGTGEEVY	18.9
VWEIATSTLLRPDYFS	21.9
WAHHGVWE	1.5
WAHHGVWEI	2.5
WALGTCI	3.3
WALGTCIWAHHGVWE	1.7
WALHWLAY	4.9
WESLEHAGPKEYD	6.6
WESLEHAGPKEYDY	7.1
WESLEHAGPKEYDYA	8.8
WETAEAGKGDF	47.7
WLSKEDDVKRGSGKWGWTRGKE	27.6

Compound	% Deuterium incorporation, Average [%]
WLSKEDDVKRGSGKWGWTRGKEWALGTCI	17.4
WLSKEDDVKRGSGKWGWTRGKEWALGTCIWAHHGVWE	11.7
WNFGPMGPYRGSRQ	53.6
WNFGPMGPYRGSRQTIDPKG	43.4
WNFGPMGPYRGSRQTIDPKGVKL	28.6
WSRFTGGSGAPLWTL	5.9
WSVDDKEQES	70.6
WSVDDKEQESY	71.0
WSVDDKEQESYHDSPRSDTPNF	83.4
YACGIDPYHLTA	15.5
YACGIDPYHLTATA	18.2
YAIWNYVPDNVHE	15.0
YAIWNYVPDNVHEWGDN	15.4
YLHCEWPSAESPKPQDF	52.9
YLHCEWPSAESPKPQDFPAM	56.9
YTHLANQ	4.9
YTHLANQTIWTF	3.6
YTHLANQTIWTFF	3.1
YVDGGRGEGD	72.5
YVDGGRGEGDY	69.5
YVDGGRGEGDYSSQ	64.9
YVDGGRGEGDYSSQQ	65.8
YVDGGRGEGDYSSQQKAMD	51.4
YVQQGNF	102.8
YVQQGNFL	101.5

target: T1, C. neoformans Sgl1; assay: Sgl1 inhibition with res-glp substrate (HTS, single-compound dose-response); assay type: biochemical; settings: res-glp as substrate (100 µM), primary screen; read-out: IC50 against Sgl1
Method: Resorufin-3β-D-glucopyranoside (res-glp, Sigma-Aldrich) enzyme kinetic assays were performed according to methods described by Urban et al.[16] with modifications. Reaction buffer contained 50 mM citric acid, 176 mM K2HPO4, pH 6, 0.01% Tween-20, and 10 mM sodium taurocholate. The reactions were carried out in black 96-well plates using 20 ng of enzyme with 100 μM res-glp substrate. In all, 10 μL/well of res-glp substrate was added to each well and the reaction was initiated by adding 20 μL enzyme (20 ng). After incubation at 37 °C for 30–40 min, the fluorescence was read at an excitation of 570 (±10) nm and an emission of 610 (±10) nm on a VersaMax™ Microplate Reader from Molecular Devices. A standard curve was prepared with serial dilutions of the free fluorophore, resorufin, in the same volume of assay buffer.
A ChemBridge DIVERSet-CL library (San Diego, CA) containing 50,000 compounds was screened to identify small molecules that inhibit C. neoformans Sgl1. The library was prepared in a 96-well plate format containing a cocktail of 10 compounds per well at 1 mM each in 100% DMSO. The cocktail plates were first diluted to 100 μM each (1:10 dilution in Dulbecco’s phosphate-buffered saline, DPBS) resulting in 10% DMSO. In order to screen the compound cocktails at […] in 1% DMSO in a final reaction volume of 30 μL an aliquot of 3 μL was added to 17 μL of buffer containing 20 ng of enzyme and the reaction was started adding 10 μL of 100 μM res-glp. A negative control without enzyme and positive controls with and without DMSO were prepared. The plates were incubated at 37 °C for 40 min.
The Z′-factor was used for the assessment of the efficiency of the HTS assay for each individual plate. Values greater than 0.5 has been considered as an indicator of an excellent screening assay quality.

Compound	IC50 [µM]
O=C(c1ccc(-c2ccccc2)c(F)c1)C1CCCN(C2CCSCC2)C1 (stereo not shown) [Hit 2]	4
CC(C)Oc1cccc(C(=O)C2CCCN(C3CCSCC3)C2)c1 (stereo not shown) [Hit 3]	4
Cc1cc(NCc2ccc3[nH]c(C)c(C)c3c2)nc(N)n1 [Hit 4]	4
CCC(Sc1nc2ccccc2o1)C(=O)N1CCc2[nH]cnc2C1 (stereo not shown) [Hit 8]	4
CN(C)CCN(Cc1ccsc1)Cc1ccc2nonc2c1 [Hit 11]	4
COc1cc(CNCc2cc(C)cc3c(C)c(C)[nH]c23)cc2c1OCO2 [Hit 12]	2

Reference: paper PMC8497620, “Structure and inhibition of Cryptococcus neoformans sterylglucosidase to develop antifungal agents” (Nature Communications, 2021)
